± gives the standard deviation of the averaged measurements.
system: ATP; test: switch fluorescence ratio, 500 uM ATP over buffer (Cy3 cluster intensity, sum of 5 cycles each) (fold (ratio)); higher = stronger signal-on switching upon ATP binding; sequences stand for … in TCGTCGGCAGCGTCAGATGTGTATAAGAGACAGTTTTTTTTTTTTTTTTTTTTTTTTT…TC; details: aptamer strand: ATP DNA aptamer (quencher-CACCTGGGGGAGTATTGCGGAGGAAGG + anchor), 100 nM annealed; ATP concentration: 500 uM
How it was run: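 For every switch-domain sequence, the fluorescence ratio is the mean of per-cluster values, each being summed target-cycle Cy3 intensity over summed buffer-cycle Cy3 intensity. Clusters outside 100-1000 RFU were excluded. On a modified Illumina MiSeq flow-cell, the Cy3-labelled switching-strand clusters were annealed to 100 nM quencher-labelled ATP aptamer, imaged in selection buffer and then after 15 min with 500 uM ATP at 22 °C. Five such cycles were run, with NaOH stripping and re-annealing between them.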
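Note: ATP exposure 15 min at 22 °C before imaging.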

| Sequence | switch fluorescence ratio |
| --- | --- |
| AAAGTGGGCG | 1.13 ± 0.18 |
| AAAGTGTGCC | 0.962 ± 0.013 |
| AAAGTGTTGC | 1.05 ± 0.042 |
| AAAGTGTTGG | 1.02 ± 0.022 |
| AAAGTGTTTC | 0.986 ± 0.029 |
| AAAGTTATAC | 1.12 ± 0.037 |
| AAAGTTCGTA | 0.985 ± 0.039 |
| AAAGTTGCTA | 0.985 ± 0.019 |
| AAAGTTTACA | 1.03 ± 0.014 |
| AAAGTTTTCC | 1.08 ± 0.074 |
| AAATAAAAAG | 1.01 ± 0.027 |
| AAATAAACGG | 1.08 ± 0.14 |
| AAATAAGGAG | 1.02 ± 0.033 |
| AAATAATGAT | 1 ± 0.021 |
| AAATAATTCG | 0.997 ± 0.032 |
| AAATAATTTC | 1 ± 0.027 |
| AAATACAAGG | 1.15 ± 0.24 |
| AAATACGTAT | 1.04 ± 0.046 |
| AAATAGAGTT | 0.998 ± 0.013 |
| AAATATTTTA | 0.999 ± 0.015 |
| AAATCACGTC | 1.07 ± 0.019 |
| AAATCAGATA | 0.987 ± 0.033 |

| Sequence | switch fluorescence ratio |
| --- | --- |
| AAATCCTATT | 0.982 ± 0.016 |
| AAATCGAAAC | 1.03 ± 0.038 |
| AAATCGGAAT | 1.25 ± 0.27 |
| AAATCGGCGG | 0.991 ± 0.05 |
| AAATCGGGTT | 1.15 ± 0.28 |
| AAATCGTTCC | 2.14 ± 0.082 |
| AAATCGTTTT | 0.972 ± 0.047 |
| AAATCTAGAC | 0.998 ± 0.011 |
| AAATCTCTTA | 0.997 ± 0.015 |
| AAATCTGCTG | 1 ± 0.061 |
| AAATCTGTCA | 1.03 ± 0.02 |
| AAATCTTAAA | 0.9917 ± 0.0023 |
| AAATGAATGG | 1.0177 ± 0.00097 |
| AAATGACAGC | 1.06 ± 0.037 |
| AAATGACGGC | 0.988 ± 0.15 |
| AAATGACGTC | 1.01 ± 0.023 |
| AAATGATTGG | 0.982 ± 0.019 |
| AAATGCCGTT | 0.982 ± 0.015 |
| AAATGCTAGC | 1.01 ± 0.039 |
| AAATGCTTAT | 1.04 ± 0.022 |
| AAATGGAACC | 1.04 ± 0.065 |
| AAATGGGAGC | 0.99 ± 0.031 |

| Sequence | switch fluorescence ratio |
| --- | --- |
| AAATGGGGAC | 0.9777 ± 0.0029 |
| AAATGGGGAT | 1.01 ± 0.032 |
| AAATGGGTAG | 0.9692 ± 0.0062 |
| AAATGGTATC | 1.01 ± 0.028 |
| AAATGGTGGT | 1.02 ± 0.018 |
| AAATGGTTCC | 1.72 ± 1 |
| AAATGTCCGG | 1 ± 0.024 |
| AAATGTGAAT | 1 ± 0.029 |
| AAATGTGGAA | 0.994 ± 0.018 |
| AAATGTGTCT | 1.01 ± 0.04 |
| AAATGTTACA | 1.06 ± 0.021 |
| AAATGTTTAT | 0.9804 ± 0.0017 |
| AAATTAAAAG | 0.984 ± 0.031 |
| AAATTAATGT | 1 ± 0.018 |
| AAATTAGCGG | 0.987 ± 0.032 |
| AAATTAGGCG | 0.975 ± 0.021 |
| AAATTATGGA | 0.969 ± 0.075 |
| AAATTCGTAT | 0.9976 ± 0.0068 |
| AAATTGAGAG | 1.004 ± 0.0021 |
| AAATTGGGCT | 1.03 ± 0.026 |
| AAATTGGTCC | 1.02 ± 0.016 |
| AAATTTATAT | 1.02 ± 0.015 |

| Sequence | switch fluorescence ratio |
| --- | --- |
| AAATTTCGTT | 0.966 ± 0.016 |
| AAATTTGTTA | 0.985 ± 0.04 |
| AAATTTTCGA | 1.018 ± 0.0088 |
| AAATTTTTTG | 1 ± 0.023 |
| AACAAATTTT | 1.012 ± 0.0097 |
| AACAACCGGT | 0.961 ± 0.031 |
| AACAACTCCA | 1.015 ± 0.0036 |
| AACAAGTAAT | 1 ± 0.018 |
| AACAATTATT | 1.04 ± 0.048 |
| AACAGGCGGC | 0.9872 ± 0.00069 |
| AACAGGGCGG | 1.01 ± 0.015 |
| AACATATCTT | 0.996 ± 0.014 |
| AACATATGTT | 0.972 ± 0.025 |
| AACATCGTAC | 1.12 ± 0.06 |
| AACATCTAGA | 0.965 ± 0.011 |
| AACATGAGGA | 1 ± 0.02 |
| AACATTATGT | 1 ± 0.04 |
| AACATTGTTT | 1.01 ± 0.016 |
| AACCAAGGTT | 1.05 ± 0.082 |
